Experimental data as given in article PMC9402713, “Structural analysis of Red1 as a conserved scaffold of the RNA-targeting MTREC/PAXT complex” (Nature Communications, 2022).
Blank lines part the entries; values can stand above or below the molecule they belong to. Where no end group is shown, it is not given here.

Key:
[1] = molecular target: Ars2 68-183,206-531 (S. pombe) (UniProt O94326); experiment: SEC-MALS; Ars2 68-183,206-531, the dimer peak of the size exclusion chromatography
[2] = molecular target: His-MBP-Red1 452-524 (S. pombe) (UniProt Q9UTR8); experiment: SEC-MALS; His-MBP-Red1 452-524, the dimer peak, injected at 9 mg/ml; stayed dimeric on reinjection
Ars2 (58-609) = molecular target: T1, Ars2 (58-609) (Schizosaccharomyces pombe); experiment: ITC; 200 mM NaCl
T1 chain: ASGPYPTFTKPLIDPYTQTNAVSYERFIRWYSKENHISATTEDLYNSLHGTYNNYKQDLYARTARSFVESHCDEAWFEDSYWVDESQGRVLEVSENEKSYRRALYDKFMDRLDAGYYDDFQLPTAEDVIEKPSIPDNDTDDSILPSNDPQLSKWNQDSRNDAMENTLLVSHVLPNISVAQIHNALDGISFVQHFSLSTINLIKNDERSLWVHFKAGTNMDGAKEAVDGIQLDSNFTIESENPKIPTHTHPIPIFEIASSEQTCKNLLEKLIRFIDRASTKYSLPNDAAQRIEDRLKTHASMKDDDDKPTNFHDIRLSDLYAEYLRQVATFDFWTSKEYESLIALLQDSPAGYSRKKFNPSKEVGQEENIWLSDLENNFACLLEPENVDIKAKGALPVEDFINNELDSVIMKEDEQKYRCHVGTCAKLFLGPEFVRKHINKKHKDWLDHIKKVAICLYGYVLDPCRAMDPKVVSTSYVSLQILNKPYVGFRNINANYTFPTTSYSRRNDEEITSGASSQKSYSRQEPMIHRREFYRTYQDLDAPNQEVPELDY

[3] = molecular target: T2, His-GST-tagged human ARS2 147-871 (human, UniProt Q9BXP5 147-871); experiment: pull-down; MBP pull-down: Ni-purified His-MBP-peptide held on amylose resin, His-GST-ARS2 added; 20 mM Tris pH 8, 100 mM NaCl; eluted with 10 mM maltose; details: both partners purified
T2 construct: ARS2 (SRRT), human, residues 147-871; vector pETM30; also called hARS2^147–871; His-GST-ARS2; source: E. coli BL21Star (DE3), purified (Ni^2+ chelating Sepharose)
T2 sequence (looked up): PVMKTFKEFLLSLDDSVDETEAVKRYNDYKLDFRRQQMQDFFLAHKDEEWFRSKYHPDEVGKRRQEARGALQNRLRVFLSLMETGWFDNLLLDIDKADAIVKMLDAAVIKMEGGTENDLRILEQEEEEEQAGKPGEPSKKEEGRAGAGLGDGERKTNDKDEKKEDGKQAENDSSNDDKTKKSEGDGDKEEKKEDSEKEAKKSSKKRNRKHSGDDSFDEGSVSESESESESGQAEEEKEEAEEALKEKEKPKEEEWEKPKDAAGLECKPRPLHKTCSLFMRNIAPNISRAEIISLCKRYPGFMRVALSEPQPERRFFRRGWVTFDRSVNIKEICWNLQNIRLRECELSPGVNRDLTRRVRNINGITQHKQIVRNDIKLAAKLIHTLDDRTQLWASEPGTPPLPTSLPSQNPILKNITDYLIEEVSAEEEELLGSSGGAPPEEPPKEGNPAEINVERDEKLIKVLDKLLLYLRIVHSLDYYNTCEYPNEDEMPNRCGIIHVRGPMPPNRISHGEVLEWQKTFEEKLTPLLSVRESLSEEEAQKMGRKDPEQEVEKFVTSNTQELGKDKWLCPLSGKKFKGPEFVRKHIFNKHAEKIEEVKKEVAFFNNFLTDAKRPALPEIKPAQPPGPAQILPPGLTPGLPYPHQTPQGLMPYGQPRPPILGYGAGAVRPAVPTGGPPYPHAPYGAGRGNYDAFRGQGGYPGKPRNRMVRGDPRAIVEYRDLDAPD

[4] = molecular target: Strep-Iss10 1-45 (S. pombe); experiment: SEC-MALS; co-purified Red1 192-236 / Iss10 1-45 complex on Superdex 200 10/300 GL, 4 °C, 20 mM Tris-HCl pH 8, 100 mM NaCl, 5 mM β-mercaptoethanol
[5] = molecular target: T3, full-length (FL) His-MBP-Ars2 (S. pombe, UniProt O94326 1-609); experiment: ITC; 200 mM NaCl
T3 chain: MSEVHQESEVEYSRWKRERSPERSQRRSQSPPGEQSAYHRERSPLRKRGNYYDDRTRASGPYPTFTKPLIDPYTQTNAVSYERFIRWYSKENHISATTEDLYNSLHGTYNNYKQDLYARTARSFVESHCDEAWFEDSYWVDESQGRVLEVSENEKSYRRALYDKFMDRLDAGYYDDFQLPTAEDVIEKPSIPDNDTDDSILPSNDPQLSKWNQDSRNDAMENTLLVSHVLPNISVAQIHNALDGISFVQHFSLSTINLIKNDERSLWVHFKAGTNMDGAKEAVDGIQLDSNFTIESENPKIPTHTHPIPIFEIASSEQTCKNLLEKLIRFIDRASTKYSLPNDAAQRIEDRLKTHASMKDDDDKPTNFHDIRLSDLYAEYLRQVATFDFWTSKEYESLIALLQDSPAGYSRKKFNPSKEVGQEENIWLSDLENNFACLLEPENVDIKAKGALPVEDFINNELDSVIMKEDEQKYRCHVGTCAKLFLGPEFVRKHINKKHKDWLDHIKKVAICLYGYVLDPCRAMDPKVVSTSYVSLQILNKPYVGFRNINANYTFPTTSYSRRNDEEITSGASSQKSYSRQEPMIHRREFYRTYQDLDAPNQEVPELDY

[6] = molecular target: full-length (FL) His-MBP-Ars2 (S. pombe) (UniProt O94326); experiment: ITC; 25 °C, 0.4-0.8 mM Red1 injected into 30-40 µM Ars2, 20 mM Tris pH 8.0, 200 mM NaCl, one-site model
Strep-Ars2 107-527 [7] = molecular target: T4, Strep-Ars2 107-527 (S. pombe, UniProt O94326 107-527); experiment: as above; details: both partners purified
T4 construct: vector pETM41; source: E. coli BL21Star (DE3), purified (Ni^2+ chelating Sepharose); not shown: Strep-tag, C-terminal, kept
T4 sequence (looked up): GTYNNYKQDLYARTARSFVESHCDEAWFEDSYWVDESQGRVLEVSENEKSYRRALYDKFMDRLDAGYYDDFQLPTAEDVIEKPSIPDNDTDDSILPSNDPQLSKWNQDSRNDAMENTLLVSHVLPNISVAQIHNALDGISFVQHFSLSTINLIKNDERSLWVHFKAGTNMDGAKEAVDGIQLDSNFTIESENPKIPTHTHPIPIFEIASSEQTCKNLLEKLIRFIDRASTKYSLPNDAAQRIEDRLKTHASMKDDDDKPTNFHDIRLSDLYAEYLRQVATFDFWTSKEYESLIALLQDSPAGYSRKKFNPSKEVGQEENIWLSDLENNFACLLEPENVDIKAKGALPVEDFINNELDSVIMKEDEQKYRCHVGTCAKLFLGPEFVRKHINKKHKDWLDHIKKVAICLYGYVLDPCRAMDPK

[8] = molecular target: T5, full-length (FL) His-MBP-Ars2 (S. pombe, UniProt O94326 1-609); experiment: as above; details: both partners purified
T5 construct: Ars2, S. pombe, 609 residues; the tags are named on the protein for the gel filtration; also called FL Ars2; full-length Ars2; source: E. coli, expressed as MBP fusion, purified (amylose resin, Superdex 200)
T5 sequence (looked up): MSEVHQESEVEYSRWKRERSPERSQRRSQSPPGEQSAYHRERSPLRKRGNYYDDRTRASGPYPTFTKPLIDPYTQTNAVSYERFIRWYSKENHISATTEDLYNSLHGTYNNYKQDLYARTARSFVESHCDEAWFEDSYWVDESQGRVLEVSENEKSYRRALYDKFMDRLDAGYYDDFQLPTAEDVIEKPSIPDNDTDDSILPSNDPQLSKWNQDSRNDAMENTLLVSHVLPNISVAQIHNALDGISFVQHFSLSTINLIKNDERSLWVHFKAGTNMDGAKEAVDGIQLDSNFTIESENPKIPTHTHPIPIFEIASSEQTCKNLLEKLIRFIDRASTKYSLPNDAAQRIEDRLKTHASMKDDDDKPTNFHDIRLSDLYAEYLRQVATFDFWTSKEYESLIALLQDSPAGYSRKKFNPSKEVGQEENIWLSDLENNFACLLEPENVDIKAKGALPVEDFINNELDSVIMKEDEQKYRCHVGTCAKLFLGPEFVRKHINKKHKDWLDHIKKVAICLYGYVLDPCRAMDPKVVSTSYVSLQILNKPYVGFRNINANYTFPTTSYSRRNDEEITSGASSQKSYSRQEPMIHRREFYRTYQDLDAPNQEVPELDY

Strep-Ars2 107-527 [9] = molecular target: T4, Strep-Ars2 107-527; experiment: ITC; 25 °C, 0.4-0.8 mM Red1 injected into 30-40 µM Ars2, 20 mM Tris pH 8.0, 100 mM NaCl, one-site model; details: both partners purified

Molecule: Ars2 68-183,206-531 (from UniProt O94326 68-183; O94326 206-531) (domain or fragment)
stoichiometry N [1]: 2

Molecule: His-MBP-Red1 452-524 (from UniProt Q9UTR8 452-524) (domain or fragment)
stoichiometry N [2]: 2

B3: His-MBP-Red1 20-40 (domain or fragment, S. pombe)
chain: KNEEDESNDSDKEDGEISEDD
notes: Red1, S. pombe, residues 20-40 with the EDGEI motif; vector pETM41; also called MBP-Red1 EDGEI motif-containing peptide; source: E. coli BL21Star (DE3), purified (Ni^2+ chelating Sepharose or amylose resin, Superdex 200)
Kd (Strep-Ars2 107-527 [7]): 5 µM
Kd [8]: ~5 µM
binding result [3]: binds
Kd (Strep-Ars2 107-527 [9]): 0.8 µM

B6: Red1 peptide 20-40 (peptide)
peptide: KNEEDESNDSDKEDGEISEDD
notes: Red1, S. pombe, residues 20-40 with the EDGEI motif; also called Red1^20–40 peptide; Red1 N-terminal peptide; source: synthetic peptide (PSL GMBH)
Kd [8]: ~5 µM

Now from value to molecule:

Kd (Ars2 (58-609)): 4.4 µM
Molecule: KNEEDESNDSDKEDGEISEDD (not fully specified)

binding result [3]: binds
B1: His-MBP-ZFC3H1 20-31 (domain or fragment, human, UniProt O60293 20-31, looked up)
chain: GELEDGEISDDD
notes: ZFC3H1, human, residues 20-31 (12 residues); source: E. coli BL21Star (DE3), purified (Ni^2+ chelating Sepharose)

stoichiometry N [4]: 1
Molecule: TTNQKEAEKAVSQLFEVGVRFNDFIAEGIEPSVVHTLFLKLGLDS (domain or fragment) [Red1 192-236, His-MBP tag cleaved]

Kd [5]: 5.6 µM
Kd [6]: 5 µM
B2: His-MBP-Red1 1-54 (domain or fragment)
chain: MSRSINLDELRKKALESKKKNEEDESNDSDKEDGEISEDDPVIDQSNSVPPMKV

binding result [3]: binds
B4: His-MBP-tagged ZFC3H1 12-33 (domain or fragment, human, UniProt O60293 12-33, looked up)
chain: SGLSPKEEGELEDGEISDDDNN
notes: ZFC3H1, human, 1989 residues, residues 12-33 with the EDGEI motif; vector pETM41; also called MBP-ZFC3H1; hZFC3H1; source: E. coli BL21Star (DE3), purified (Ni^2+ chelating Sepharose)

binding result [3]: binds
B5: His-MBP-ZFC3H1 12-33 I27L (domain or fragment, human, UniProt O60293 12-33, looked up)
chain: SGLSPKEEGELEDGELSDDDNN
notes: ZFC3H1, human, residues 12-33; source: E. coli BL21Star (DE3), purified (Ni^2+ chelating Sepharose)
